The values that follow come from PMC3687597 (Clinical and Developmental Immunology, 2013).

The target in this test is T1, anthrax lethal factor (LF) (Bacillus anthracis, strain , UniProt P15917).
T1 construct: source: purified; produced in Dr. Nick Duesbery's lab at Van Andel Research Institute
The test is described as follows: ELISA. The following applies: both partners purified.

T1 sequence (P15917 34-809): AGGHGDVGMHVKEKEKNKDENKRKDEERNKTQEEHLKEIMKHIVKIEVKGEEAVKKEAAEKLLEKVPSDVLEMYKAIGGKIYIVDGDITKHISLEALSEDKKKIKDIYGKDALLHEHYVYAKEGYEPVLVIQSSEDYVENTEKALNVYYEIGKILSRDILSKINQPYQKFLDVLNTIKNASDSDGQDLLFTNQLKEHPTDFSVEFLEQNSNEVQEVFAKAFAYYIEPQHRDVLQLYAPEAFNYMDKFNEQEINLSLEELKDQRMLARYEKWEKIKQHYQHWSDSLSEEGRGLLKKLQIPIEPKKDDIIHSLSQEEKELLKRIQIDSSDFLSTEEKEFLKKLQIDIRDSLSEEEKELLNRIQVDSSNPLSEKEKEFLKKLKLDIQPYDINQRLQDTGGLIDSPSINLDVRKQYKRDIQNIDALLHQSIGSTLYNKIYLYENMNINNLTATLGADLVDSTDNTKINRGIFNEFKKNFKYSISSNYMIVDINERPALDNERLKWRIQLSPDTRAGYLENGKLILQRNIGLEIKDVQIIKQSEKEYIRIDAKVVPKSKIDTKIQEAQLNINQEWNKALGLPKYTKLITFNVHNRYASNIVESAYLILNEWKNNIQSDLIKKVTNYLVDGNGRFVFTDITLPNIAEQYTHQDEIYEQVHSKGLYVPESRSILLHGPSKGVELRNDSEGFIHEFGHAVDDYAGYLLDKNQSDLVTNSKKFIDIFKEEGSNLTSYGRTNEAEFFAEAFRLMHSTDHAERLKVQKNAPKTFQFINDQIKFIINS

B1:  (Fab, V domains shown)
VH: EVQLQQSGAELVKPGASVKLSCTASGFNIKDSYMHWVKQRPEQGLEWIGRIDPANGNTKYDPKFQGKATITVDTSSNTAYLQLSSLTSEDTAVYYCTRLDYWGQGTTLTVS
VL: ENVLTQSPAIMSASLGEKVTMSCRASSSVNYMYWYQQKSDASPKLWIYSTSNLAPGVPARFSGSGSGNSYSLTISSMEGEDAATYYCQQFTSSPSALTFGAGTKLEIK
notes: also called LF8-Fab; chimeric anti-LF Fab
In turn, B1 gave a Ka of 3.46e+07 M⁻¹.
